Laboratory results reported in US20250313626A1 (HARBOUR BIOMED SHANGHAI, published 2025).

Experiments:
[1] = target: T1, Mouse CD200R1-His (mouse, UniProt Q9ES57 26-238, limits assumed); assay: BLI (Octet), antibody captured on anti-human Fc sensor
T1 sequence (looked up): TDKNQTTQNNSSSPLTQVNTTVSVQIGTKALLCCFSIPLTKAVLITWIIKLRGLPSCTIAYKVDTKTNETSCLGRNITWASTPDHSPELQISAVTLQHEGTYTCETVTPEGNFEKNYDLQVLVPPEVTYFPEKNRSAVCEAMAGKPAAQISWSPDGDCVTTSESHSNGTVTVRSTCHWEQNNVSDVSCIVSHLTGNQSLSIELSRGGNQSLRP
Method: (§1) To determine the binding affinities of the anti-CD200R1 antibodies to CD200R1a proteins of various species (mouse, human, Cynomolgus macaques), bio-layer interferometry (BLI) assays were carried out using an Octet® RED96e instrument. Antibodies were produced as described in Example 3.4 and diluted to 5 μg/mL using freshly prepared 1× kinetic buffer (10× kinetic buffer (Catalog #18-1105, ForteBio) was diluted with PBS(Catalog #E607016-0500, BBI Life Sciences)) and were captured on the surface of anti-human Fc (AHC) Octet biosensors (Catalog #18-5060, ForteBio) to reach capture levels between 0.9-1.2 nm. The biosensors having the captured anti-CD200R1 antibodies were then dipped in wells containing 2-fold serial dilutions of CD200R1a proteins to detect association signals, followed by dissociation steps in wells containing 1× kinetic buffer. The sensorgrams were recorded and the reference signals were subtracted before curve fitting using ForteBio Data Analysis 11.0 software. Association rates (kₒₙ) and dissociation rates (koff) were calculated using a simple one-to-one Langmuir binding model. The equilibrium dissociation constant (KD) was calculated as the ratio of koff/kₒₙ.

[2] = target: T2, human CD200R1a protein (soluble recombinant) (human, UniProt Q8TD46 29-265); assay: BLI (Octet), antibody captured on anti-human Fc sensor, soluble CD200R1a as analyte, 1:1 fit
T2 construct: Soluble protein used in BLI; also called human CD200R1 isoform a; not shown: His tag implied by capture on anti-Penta-HIS biosensors
T2 sequence: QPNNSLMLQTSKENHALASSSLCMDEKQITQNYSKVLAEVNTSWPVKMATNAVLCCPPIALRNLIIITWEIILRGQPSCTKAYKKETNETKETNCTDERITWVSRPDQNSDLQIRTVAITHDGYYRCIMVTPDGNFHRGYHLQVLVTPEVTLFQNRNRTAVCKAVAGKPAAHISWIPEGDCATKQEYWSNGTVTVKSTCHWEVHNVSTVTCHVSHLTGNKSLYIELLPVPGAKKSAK
Method: as §1

[3] = target: T3, Cyno CD200R1a-His (Cynomolgus macaques, UniProt Q8TD46 25-265 (human entry)); assay: as above
T3 construct: Soluble protein used in BLI; also called Cynomolgus macaques CD200R1a recombinant protein; not shown: His tag
T3 chain: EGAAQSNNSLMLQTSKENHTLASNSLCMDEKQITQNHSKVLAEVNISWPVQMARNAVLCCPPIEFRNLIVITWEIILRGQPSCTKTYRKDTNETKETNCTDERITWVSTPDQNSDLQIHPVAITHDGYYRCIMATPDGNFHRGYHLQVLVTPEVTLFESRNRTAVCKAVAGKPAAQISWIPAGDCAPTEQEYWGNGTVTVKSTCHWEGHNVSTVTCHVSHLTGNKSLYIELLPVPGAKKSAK
Method: as §1

[4] = target: T4, Cynomolgus macaques CD200R1 isoform a on CHOK1 cells (CHOK1/cynoCD200R1a) (Cynomolgus macaques); assay: flow cytometry, CHOK1/cynoCD200R1a cells; table beside the curves, head without unit, x axis Log [Ab] (nM)
T4 chain: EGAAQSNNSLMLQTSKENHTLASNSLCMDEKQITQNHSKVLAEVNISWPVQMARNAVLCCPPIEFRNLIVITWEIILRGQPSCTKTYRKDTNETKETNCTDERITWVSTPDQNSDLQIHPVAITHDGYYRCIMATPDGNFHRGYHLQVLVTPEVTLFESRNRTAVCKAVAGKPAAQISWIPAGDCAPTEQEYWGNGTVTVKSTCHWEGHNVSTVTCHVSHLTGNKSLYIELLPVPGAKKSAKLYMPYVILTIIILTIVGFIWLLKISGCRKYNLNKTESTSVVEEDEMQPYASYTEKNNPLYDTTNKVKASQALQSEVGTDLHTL
Method: This example is intended to investigate the in vitro binding activity of human anti-CD200R1 monoclonal antibodies to human/Cynomolgus macaques CD200R1a expressed on the surface of cells. The anti-CD200R1 antibodies were produced as described in Example 3.4 and the binding experiments at the cell level were performed using CHOK1/hCD200R1a and CHOK1-cynoCD200R1a.
Briefly, CHOK1/hCD200R1a cells and CHOK1-cynoCD200R1a cells were digested, and collected, and then were resuspended in PBS containing 2% BSA, respectively. The cell density was adjusted to 1×10⁶ cells/mL. The cells were seeded in a 96-well V-bottom plate (Corning, #3894) at 100 μL/well, followed by the addition of test antibodies and reference antibodies in a series diluted concentration, each at 100 μL/well. The cells were incubated away from light at 4° C. for 1 h. Thereafter, the cells in each well were rinsed twice with 100 μL of pre-cooled PBS containing 2% BSA, and centrifuged at 500 g at 4° C. for 5 min, and then the supernatant was discarded. 100 μL of fluorescent secondary antibody (Alexa Fluor 488-conjugated AffiniPure Goat Anti-Human IgG, Fcγ Fragment Specific, Jackson, #109-545-098, diluted in a 1:1000 ratio) was added in each well, and the plate was incubated away from light at 4° C. for 1 h. The cells in each well were rinsed twice with 100 μL of pre-cooled PBS containing 2% BSA, and centrifuged at 500 g at 4° C. for 5 min, and then the supernatant was discarded. Finally, the cells in each well were resuspended in 200 μL of pre-cooled PBS containing 2% BSA, and the fluorescence signal values were read using a BD CantoII flow cytometer.

B1: PR006480 (antibody, human IgG1, kappa, L234A L235A)
heavy: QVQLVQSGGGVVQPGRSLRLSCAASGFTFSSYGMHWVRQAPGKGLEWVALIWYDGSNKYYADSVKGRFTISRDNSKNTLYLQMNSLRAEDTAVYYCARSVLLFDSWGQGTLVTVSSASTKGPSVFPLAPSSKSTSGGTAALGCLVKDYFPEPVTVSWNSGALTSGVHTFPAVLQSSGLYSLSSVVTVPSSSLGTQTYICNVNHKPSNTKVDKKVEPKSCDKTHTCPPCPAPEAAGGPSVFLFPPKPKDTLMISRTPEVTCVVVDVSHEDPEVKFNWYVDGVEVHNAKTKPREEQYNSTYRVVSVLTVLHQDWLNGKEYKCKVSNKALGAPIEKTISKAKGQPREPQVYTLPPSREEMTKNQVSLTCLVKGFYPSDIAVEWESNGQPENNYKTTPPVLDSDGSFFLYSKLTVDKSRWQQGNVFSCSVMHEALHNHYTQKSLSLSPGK
light: DIQMTQSPPSLSASVGDRVTITCRASQSISSYLNWFQQKAGKAPKLLISATSNLQSGVPSRFSGSGSGTDFTLTISSLQPEDLATYYCQQSYSSPYTFGQGTKVEIKRTVAAPSVFIFPPSDEQLKSGTASVVCLLNNFYPREAKVQWKVDNALQSGNSQESVTEQDSKDSTYSLSSTLTLSKADYEKHKVYACEVTHQGLSSPVTKSFNRGEC
notes: also called PR6480
[1]
  binding result: no binding
[2]
  Kd: 14.3 nM
  koff: 0.000476 s⁻¹
  kon: 33300 M⁻¹ s⁻¹
[3]
  Kd: 104 nM
  koff: 0.00713 s⁻¹
  kon: 68500 M⁻¹ s⁻¹
[4]
  EC50: 2.98 nM

B2: PR007221 (antibody, human IgG1, kappa)
heavy: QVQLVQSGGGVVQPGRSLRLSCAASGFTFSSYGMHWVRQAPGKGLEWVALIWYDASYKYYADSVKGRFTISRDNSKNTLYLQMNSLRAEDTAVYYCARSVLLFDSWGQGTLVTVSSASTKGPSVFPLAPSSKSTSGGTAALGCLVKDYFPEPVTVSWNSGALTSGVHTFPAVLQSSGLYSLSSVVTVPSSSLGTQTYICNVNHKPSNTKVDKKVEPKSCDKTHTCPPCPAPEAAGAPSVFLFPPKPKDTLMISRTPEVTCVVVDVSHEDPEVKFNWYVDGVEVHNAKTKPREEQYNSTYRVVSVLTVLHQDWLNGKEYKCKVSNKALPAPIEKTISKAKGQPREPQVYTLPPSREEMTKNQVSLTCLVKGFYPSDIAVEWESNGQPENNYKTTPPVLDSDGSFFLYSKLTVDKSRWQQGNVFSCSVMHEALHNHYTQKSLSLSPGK
light: DIQLTQSPPSLSASVGDRVTITCRASQSISSYLNWFQQKAGKAPKLLISATSNLQSGVPSRFSGSGSGTDFTLTISSLQPEDLATYYCQQTLSSPYTFGQGTKVEIKRTVAAPSVFIFPPSDEQLKSGTASVVCLLNNFYPREAKVQWKVDNALQSGNSQESVTEQDSKDSTYSLSSTLTLSKADYEKHKVYACEVTHQGLSSPVTKSFNRGEC
notes: PTM variant of PR006895 (human IgG1)
[1]
  binding result: no binding
[2]
  Kd: 4.34 nM
  koff: 0.000211 s⁻¹
  kon: 48600 M⁻¹ s⁻¹
[3]
  Kd: 12.5 nM
  koff: 0.000776 s⁻¹
  kon: 62100 M⁻¹ s⁻¹

B3: PR007223 (antibody, human IgG1, kappa)
heavy: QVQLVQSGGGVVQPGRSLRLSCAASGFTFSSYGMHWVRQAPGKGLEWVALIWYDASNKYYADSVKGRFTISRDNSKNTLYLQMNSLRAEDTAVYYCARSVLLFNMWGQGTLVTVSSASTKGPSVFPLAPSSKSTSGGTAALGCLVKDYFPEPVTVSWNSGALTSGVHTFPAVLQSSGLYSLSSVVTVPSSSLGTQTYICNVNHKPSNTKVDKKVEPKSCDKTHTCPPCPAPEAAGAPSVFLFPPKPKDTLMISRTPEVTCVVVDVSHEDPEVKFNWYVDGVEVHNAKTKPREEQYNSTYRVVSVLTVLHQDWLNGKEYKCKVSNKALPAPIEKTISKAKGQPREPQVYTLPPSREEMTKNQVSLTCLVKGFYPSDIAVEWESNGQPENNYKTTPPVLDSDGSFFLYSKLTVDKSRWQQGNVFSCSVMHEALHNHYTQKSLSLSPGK
light: DIQLTQSPPSLSASVGDRVTITCRASQSISSYLNWFQQKAGKAPKLLISATSNLQSGVPSRFSGSGSGTDFTLTISSLQPEDLATYYCQQTYSSPYTFGQGTKVEIKRTVAAPSVFIFPPSDEQLKSGTASVVCLLNNFYPREAKVQWKVDNALQSGNSQESVTEQDSKDSTYSLSSTLTLSKADYEKHKVYACEVTHQGLSSPVTKSFNRGEC
notes: as for B2
[1]
  binding result: no binding
[2]
  Kd: 2.07 nM
  koff: 0.000133 s⁻¹
  kon: 64200 M⁻¹ s⁻¹
[3]
  Kd: 16.3 nM
  koff: 0.0014 s⁻¹
  kon: 86000 M⁻¹ s⁻¹

B4: PR005509 (antibody, human IgG1, kappa, L234A L235A, V domains shown)
VH: QVQLVESGGGVVQPGRSLRLSCAASGFTFSSYGFHWVRQAPGKGLEWLGLIWSDGSNKYYADSVKGRFTISRDNSKNTLYLQMNSLRAEDTAVYYCARDRIVGAGFDYWGQGTLVTVSS
VL: not shown
[1]
  binding result: no binding
[2]
  Kd: 7.74 nM
  koff: 0.000511 s⁻¹
  kon: 66100 M⁻¹ s⁻¹
[3]
  Kd: 146 nM
  koff: 0.0275 s⁻¹
  kon: 189000 M⁻¹ s⁻¹

B5: PR007973 (antibody, human IgG1, kappa, V domains shown)
VH: QVQLVESGGGVVQPGRSLRLSCAASGFTFSSYGFHWVRQAPGKGLEWLGIIWSDASNKYYADSVKGRFTISRDNSKNTLYLQMNSLRAEDTAVYYCARDRIVGEGFDYWGQGTLVTVSS
VL: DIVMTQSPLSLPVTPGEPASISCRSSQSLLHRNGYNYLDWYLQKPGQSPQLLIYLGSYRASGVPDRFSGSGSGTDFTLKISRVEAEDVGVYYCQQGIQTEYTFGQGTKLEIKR
notes: PTM variant of PR006839 (human IgG1)
[1]
  binding result: no binding
[2]
  Kd: 1.06 nM
  koff: 5.97e-05 s⁻¹
  kon: 56200 M⁻¹ s⁻¹
[3]
  Kd: 10.2 nM
  koff: 0.000151 s⁻¹
  kon: 14900 M⁻¹ s⁻¹

B6: PR005474 (antibody, human IgG1, kappa, L234A L235A, V domains shown)
VH: QVQLVESGGGVVQPGRSLRLSCAASAFTFSSYGMHWVRQAPGKGLEWVALIWNDGSNKFYADSVKGRFTISRDNSKNTLFLQMNSLRAEDTAVYYCARDRILGAGFDYWGQGTLVTVSS
VL: not shown
[1]
  binding result: no binding
[2]
  Kd: 16.6 nM
  koff: 0.00101 s⁻¹
  kon: 60700 M⁻¹ s⁻¹
[3]
  Kd: 147 nM
  koff: 0.0287 s⁻¹
  kon: 196000 M⁻¹ s⁻¹
[4]
  EC50: 3.34 nM

B7: PR002906 (antibody, V domains shown)
VH: QVQLQESGPGLVKPSETLSLTCTVSGYTITSGYDWSWIRQPPGKGLEWIGYINYGGSTNYKPSLGSRVTISVDTSKNQFSLKLSSVTAADTAVYYCARYNEYKSYIYDWYFDFWGQGTLVTVSS
VL: DIQMTQSPSSLSASVGDRVTITCKASKNIRSYLAWYQQKPGKAPKLLIYSGSTLHSGVPSRFSGSGSGTDFTLTISSLQPEDFATYYCQQHHEYPLTFGQGTKVEIKR
notes: also called recombinant IgG1 antibody of huDX182
[2]
  Kd: 39.3 nM
  koff: 0.00341 s⁻¹
  kon: 86700 M⁻¹ s⁻¹
[4]
  EC50: 20.8 nM
